Experimental findings from paper PMC7835222, “PRMT3 interacts with ALDH1A1 and regulates gene-expression by inhibiting retinoic acid signaling” (Communications Biology, 2021) are described below.

This experiment has as its target T1, GST-tagged PRMT3 full-length protein (pGEX-PR-FL) (human, UniProt O60678-1 1-531).
T1 construct: Protein arginine methyltransferase 3 (PRMT3), human, full length; pGEX-6P2 vector; the legends mark a degraded GST-PRMT3 band beside the full-length one; also called GST-PRMT3; GST-PRMT3-FL
As to the kind of experiment: pull-down; 15 µg GST-PRMT3 (wild type or mutant) on Glutathione Sepharose, 15 µg His-tagged AL-FL in solution, with or without 200 µM SAM or SAH; 20 mM HEPES pH 7.5, 150 mM KCl, 0.2 mM DTT, 1 mM EDTA, 10% glycerol; 4 °C, 10 h; blot with His antibody. The following applies: both partners purified.

T1 sequence (O60678 whole entry): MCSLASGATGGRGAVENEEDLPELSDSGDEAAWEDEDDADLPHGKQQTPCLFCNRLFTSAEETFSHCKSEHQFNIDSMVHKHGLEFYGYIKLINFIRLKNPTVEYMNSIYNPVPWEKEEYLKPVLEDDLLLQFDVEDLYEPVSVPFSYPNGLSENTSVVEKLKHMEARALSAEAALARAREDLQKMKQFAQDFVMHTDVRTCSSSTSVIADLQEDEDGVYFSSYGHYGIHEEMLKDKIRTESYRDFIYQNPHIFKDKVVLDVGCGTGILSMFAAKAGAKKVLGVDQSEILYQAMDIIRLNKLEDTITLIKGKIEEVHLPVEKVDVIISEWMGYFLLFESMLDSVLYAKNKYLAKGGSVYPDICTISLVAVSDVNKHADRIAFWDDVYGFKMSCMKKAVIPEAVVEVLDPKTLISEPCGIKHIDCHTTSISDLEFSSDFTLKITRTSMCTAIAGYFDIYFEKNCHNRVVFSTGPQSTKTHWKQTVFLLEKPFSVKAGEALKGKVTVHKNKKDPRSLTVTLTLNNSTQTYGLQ

B1: His-tagged ALDH1A1 full length (pET28a-AL-FL) (enzyme, human, UniProt P00352 1-501, looked up)
chain: MSSSGTPDLPVLLTDLKIQYTKIFINNEWHDSVSGKKFPVFNPATEEELCQVEEGDKEDVDKAVKAARQAFQIGSPWRTMDASERGRLLYKLADLIERDRLLLATMESMNGGKLYSNAYLNDLAGCIKTLRYCAGWADKIQGRTIPIDGNFFTYTRHEPIGVCGQIIPWNFPLVMLIWKIGPALSCGNTVVVKPAEQTPLTALHVASLIKEAGFPPGVVNIVPGYGPTAGAAISSHMDIDKVAFTGSTEVGKLIKEAAGKSNLKRVTLELGGKSPCIVLADADLDNAVEFAHHGVFYHQGQCCIAASRIFVEESIYDEFVRRSVERAKKYILGNPLTPGVTQGPQIDKEQYDKILDLIESGKKEGAKLECGGGPWGNKGYFVQPTVFSNVTDEMRIAKEEIFGPVQQIMKFKSLDDVIKRANNTFYGLSAGVFTKDIDKAITISSALQAGTVWVNCYGVVSAQCPFGGFKMSGNGRELGEYGFHEYTEVKTVTVKISQKNS
notes: Retinal dehydrogenase 1 (ALDH1A1), human, full length; pET28a vector; also called His-tagged AL-FL
For the molecule B1, the binding result was “binds”.
